Legend:
GST-ICR1 = molecular target: T1, GST-ICR1 (Arabidopsis, UniProt Q8LE98 1-344); assay: pull-down; GST-ICR1 (1.2 μg) or GST (0.4 μg) on Glutathione sepharose, His6-CMI1 0.5 μg; 20 mM Tris-HCl pH 7.5, 5 mM CaCl2, 0.1 mg/mL BSA, 200 mM NaCl, 1% Triton X-100, RT; wash with 1 M NaCl; blot with anti-poly-His; settings: both partners purified
T1 construct: ICR1, Arabidopsis; also called glutathione S-transferase (GST)-ICR1; source: E. coli Rosetta (DE3), purified (Glutathione sepharose)
T1 sequence (looked up): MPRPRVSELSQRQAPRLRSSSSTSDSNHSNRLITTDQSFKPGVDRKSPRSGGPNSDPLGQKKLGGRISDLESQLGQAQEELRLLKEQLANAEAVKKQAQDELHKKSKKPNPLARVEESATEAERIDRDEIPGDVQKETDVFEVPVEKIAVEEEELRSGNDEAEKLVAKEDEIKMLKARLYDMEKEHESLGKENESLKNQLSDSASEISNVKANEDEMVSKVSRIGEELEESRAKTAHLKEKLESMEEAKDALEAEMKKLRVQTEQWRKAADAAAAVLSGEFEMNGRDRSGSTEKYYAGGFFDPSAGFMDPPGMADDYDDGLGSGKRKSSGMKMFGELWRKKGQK

His6-ICR1 = molecular target: T2, His6-ICR1 (Arabidopsis, UniProt Q8LE98 1-344); assay: co-IP; purified His6-CMI1 and His6-ICR1, 1 μg each, 300 μL reaction buffer (20 mM Tris-HCl pH 7.5, 5 mM CaCl2, 0.1 mg/mL BSA, 200 mM NaCl, 1% Triton X-100), RT; anti-CMI1 antibodies and Protein A beads; blot with anti-poly-His; settings: both partners purified
T2 construct: ICR1, Arabidopsis; also called His-ICR1; source: E. coli Rosetta (DE3), purified (Ni-NTA)
T2 sequence (looked up): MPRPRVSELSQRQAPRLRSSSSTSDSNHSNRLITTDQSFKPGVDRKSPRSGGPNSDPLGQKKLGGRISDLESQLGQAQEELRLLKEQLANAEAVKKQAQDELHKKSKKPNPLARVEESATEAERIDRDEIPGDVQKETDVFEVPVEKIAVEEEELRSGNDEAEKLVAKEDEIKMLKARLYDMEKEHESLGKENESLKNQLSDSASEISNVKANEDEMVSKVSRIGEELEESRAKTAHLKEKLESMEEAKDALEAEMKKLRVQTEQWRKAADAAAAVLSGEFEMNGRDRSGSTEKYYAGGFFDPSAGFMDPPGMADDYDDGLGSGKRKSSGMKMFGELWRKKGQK

binding result (GST-ICR1): binds
binding result (His6-ICR1): binds
B1: His6-CMI1 (natural protein, Arabidopsis, UniProt O81831 1-130, looked up)
chain: MASPKSPTRPTQQNPQPNFHDFLPTMAGNLGGEGLIGELCNGFELLMDREKGVITFESLRRNAAAVLGLGDLTDEDVRCMIKEGDFDCDGALNQMEFCVLMFRLSPDLMEASRCLVTEVIEEEFGFTRRH
notes: CMI1, Arabidopsis, At4g27280; also called His-CMI1; source: E. coli Rosetta (DE3), purified (Ni-NTA)

Source: paper PMC6650080, “A novel Ca2+-binding protein that can rapidly transduce auxin responses during root growth” (PLoS Biology, 2019)
